From patent publication US20240116985A1 (published 2024)
One block for each binder: values may come before it. Starred links: 1 amine or outer side, 2 acyl side, 3 side chain; linkers in the order of their positions; H or OH if unused. Positions of bridges follow the written chain, without caps; N, C: chain ends. Non-standard residues stand in square brackets, D forms with d. Primed or numbered codes have the meaning given here. *: point of attachment. B5(10) = 2-amino-2-(pent-4-en-1-yl)hept-6-enoic acid, bis(4-pentenyl)glycine, stitching residue bearing both staples, C=CCCCC(CCCC=C)(N[*:1])C(=O)[*:2]; PyrS2″ = (S)-3-amino-1-((pent-4-en-1-yloxy)carbonyl)pyrrolidine-3-carboxylic acid (stapling residue), C=CCCCOC(=O)N1CC[C@@](N[*:1])(C(=O)[*:2])C1; B5(16) = 2-amino-2-(pent-4-en-1-yl)hept-6-enoic acid = 2,2-bis(4-pentenyl)glycine (stitching residue), C=CCCCC(CCCC=C)(N[*:1])C(=O)[*:2]; B5(17) = 2,2-bis(4-pentenyl)glycine = 2-amino-2-(pent-4-en-1-yl)hept-6-enoic acid, stitching residue, C=CCCCC(CCCC=C)(N[*:1])C(=O)[*:2]; B5(18) = 2,2-bis(4-pentenyl)glycine (2-amino-2-(pent-4-en-1-yl)hept-6-enoic acid), stitching residue, C=CCCCC(CCCC=C)(N[*:1])C(=O)[*:2]; B5(4) = 2,2-bis(4-pentenyl)glycine = 2-amino-2-(pent-4-en-1-yl)hept-6-enoic acid (stitching residue), C=CCCCC(CCCC=C)(N[*:1])C(=O)[*:2]; B5(21) = 2-amino-2-(pent-4-en-1-yl)hept-6-enoic acid, bis(4-pentenyl)glycine (stitching residue), C=CCCCC(CCCC=C)(N[*:1])C(=O)[*:2]; TfeGA = (S)-2-amino-3-((carboxymethyl)(2,2,2-trifluoroethyl)amino)propanoic acid, O=C([C@H](CN(CC(=O)[*:3])CC(F)(F)F)N[*:1])[*:2]; PyrS2 = (S)-3-amino-1-((pent-4-en-1-yloxy)carbonyl)pyrrolidine-3-carboxylic acid, C=CCCCOC(=O)N1CC[C@@](N[*:1])(C(=O)[*:2])C1; SeN = (S)-5-(((allyloxy)carbonyl)(methyl)amino)-2-amino-2-methylpentanoic acid, C=CCOC(=O)N(C)CCC[C@](C)(N[*:1])C(=O)[*:2]; SdN = (S)-4-(((allyloxy)carbonyl)(methyl)amino)-2-amino-2-methylbutanoic acid, C=CCOC(=O)N(C)CC[C@](C)(N[*:1])C(=O)[*:2]; B5(3) = 2,2-bis(4-pentenyl)glycine (stitching residue), C=CCCCC(CCCC=C)(N[*:1])C(=O)[*:2]; S3 = (S)-2-amino-2-methylpent-4-enoic acid, C=CC[C@](C)(N[*:1])C(=O)[*:2]; Phe(2-Cl) = N[C@@H](Cc1ccccc1Cl)C(=O)O; Bta = N[C@@H](Cc1csc2ccccc12)C(=O)O; αAllylPro = C=CC[C@@]1(C(=O)O)CCCN1; tBuAla = CC(C)(C)C[C@H](N)C(=O)O; 3Thi = N[C@@H](Cc1ccsc1)C(=O)O; S8 = C=CCCCCCC[C@](C)(N)C(=O)O; Alaol = C[C@@H](CO)N*; Aib = CC(C)(N)C(=O)O

Legend:
[1] = target: T1, beta-catenin in DLD1 TCF/LEF luciferase reporter cells (UniProt P35222 1-781); experiment: cell-based or functional assay
T1 sequence (looked up): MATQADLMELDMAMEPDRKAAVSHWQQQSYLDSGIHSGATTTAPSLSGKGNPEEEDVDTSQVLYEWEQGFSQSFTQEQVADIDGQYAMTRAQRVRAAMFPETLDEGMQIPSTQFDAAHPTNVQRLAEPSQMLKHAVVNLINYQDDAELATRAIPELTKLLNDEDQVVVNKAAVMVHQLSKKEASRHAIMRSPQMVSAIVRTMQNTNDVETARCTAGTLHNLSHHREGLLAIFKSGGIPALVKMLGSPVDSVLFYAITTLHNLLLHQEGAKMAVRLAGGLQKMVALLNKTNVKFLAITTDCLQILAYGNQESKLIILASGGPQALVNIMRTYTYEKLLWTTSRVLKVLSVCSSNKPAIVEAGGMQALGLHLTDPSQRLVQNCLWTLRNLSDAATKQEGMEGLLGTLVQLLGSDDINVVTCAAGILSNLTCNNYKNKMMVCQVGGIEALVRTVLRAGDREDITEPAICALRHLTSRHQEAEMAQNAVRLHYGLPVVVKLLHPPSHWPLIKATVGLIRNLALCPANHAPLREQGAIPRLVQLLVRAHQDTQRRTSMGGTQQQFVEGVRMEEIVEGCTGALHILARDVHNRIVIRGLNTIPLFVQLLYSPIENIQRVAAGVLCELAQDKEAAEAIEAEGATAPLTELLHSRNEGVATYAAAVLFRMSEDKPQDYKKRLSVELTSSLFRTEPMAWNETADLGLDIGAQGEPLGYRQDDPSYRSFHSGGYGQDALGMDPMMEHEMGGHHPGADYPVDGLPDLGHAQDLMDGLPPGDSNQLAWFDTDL

[2] = target: T2, B-cat-Halo (UniProt P35222 1-781); experiment: cell-based or functional assay
T2 sequence (looked up): T1 sequence (looked up)

[3] = target: T3, full-length beta-Catenin (Uniprot ID P35222) (Homo sapiens (Human), UniProt P35222 2-781); experiment: fluorescence polarization competition; 10 nM full-length beta-catenin + 10 nM 5FAM-TCF4 10-53 as competitor probe
T3 construct: Used at 10 nM in the FP probe solution as 'full-length'; Also used here for the endogenous beta-catenin of the DLD1 TCF/LEF reporter cells (functional rows); also called bCat; B-Catenin
T3 sequence: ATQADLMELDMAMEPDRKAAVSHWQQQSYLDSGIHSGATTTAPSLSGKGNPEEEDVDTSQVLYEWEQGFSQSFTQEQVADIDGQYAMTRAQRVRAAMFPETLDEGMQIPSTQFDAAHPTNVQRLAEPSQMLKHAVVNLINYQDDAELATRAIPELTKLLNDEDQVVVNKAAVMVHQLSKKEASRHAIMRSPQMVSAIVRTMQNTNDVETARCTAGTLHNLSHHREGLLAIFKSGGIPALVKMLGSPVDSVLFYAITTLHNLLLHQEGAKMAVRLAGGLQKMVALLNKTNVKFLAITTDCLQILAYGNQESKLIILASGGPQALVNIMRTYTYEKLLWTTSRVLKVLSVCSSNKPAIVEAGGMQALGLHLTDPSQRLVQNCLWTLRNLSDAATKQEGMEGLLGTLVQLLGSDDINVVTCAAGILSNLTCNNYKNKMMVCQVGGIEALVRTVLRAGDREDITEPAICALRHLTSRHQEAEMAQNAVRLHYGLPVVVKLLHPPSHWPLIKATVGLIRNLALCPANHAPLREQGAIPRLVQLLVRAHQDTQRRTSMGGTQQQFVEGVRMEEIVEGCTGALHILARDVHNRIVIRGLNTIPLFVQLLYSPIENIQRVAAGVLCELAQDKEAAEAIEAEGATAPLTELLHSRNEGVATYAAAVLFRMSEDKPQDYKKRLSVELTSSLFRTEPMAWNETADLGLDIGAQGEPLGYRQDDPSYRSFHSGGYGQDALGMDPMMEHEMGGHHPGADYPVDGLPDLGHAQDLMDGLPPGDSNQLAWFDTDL
Method: (§1) The plate was incubated protected from light for 60 minutes at 20° C. prior to read. Reads were performed on a CLARIOstar plate reader (BMG Labtech) in duplicate, and data were fitted to a 1:1 binding model with hill slope using an in-house script. All provided concentrations are final concentrations.

[4] = target: T4, B-cat-Halo (beta-catenin HaloTag Nano-BRET construct) (UniProt P35222 1-781); experiment: cell-based or functional assay
T4 sequence (looked up): T1 sequence (looked up)

[5] = target: T5, full-length beta-Catenin (Uniprot ID P35222) (Homo sapiens (Human), UniProt P35222 1-781); experiment: fluorescence polarization competition; full-length beta-catenin + 5FAM-TCF4(10-53) probe
T5 construct: also called bCat; B-Catenin
T5 sequence: T1 sequence (looked up)
Method: as §1

[6] = target: T6, B-cat-Halo (UniProt P35222 1-781); experiment: NanoBRET Abs IC50 in HEK293 cells; Bcat-Halo, TCF4-Luc as competitor
T6 construct: Expressed by transfection in HEK293 cells for the NanoBRET assay; also called beta-catenin HaloTag NanoBRET construct; not shown: HaloTag
T6 sequence (looked up): T1 sequence (looked up)

[7] = target: T7, B-cat-Halo (UniProt P35222 1-781); experiment: cell-based or functional assay; remark: listed apart in the source
T7 sequence (looked up): T1 sequence (looked up)

[8] = target: T8, beta-catenin in DLD1 TCF/LEF luciferase reporter cells (UniProt P35222 1-781); experiment: cell-based or functional assay; remark: listed apart in the source
T8 sequence (looked up): T1 sequence (looked up)

[9] = target: T9, B-cat-Halo (beta-catenin HaloTag NanoBRET construct expressed in HEK293 cells) (UniProt P35222 1-781); experiment: cell-based or functional assay
T9 sequence (looked up): T1 sequence (looked up)

[10] = target: T10, full-length beta-Catenin (Uniprot ID P35222) (Homo sapiens (Human), UniProt P35222 1-781); experiment: fluorescence polarization competition; full-length beta-catenin, 5FAM-TCF4(10-53) probe as competitor
T10 construct: The assay protocol says 'full-length'; also called bCat; B-Catenin
T10 sequence: T1 sequence (looked up)
Method: as §1

B1: I-1008 (peptide)
peptide: Ac-[αAllylPro]D[tBuAla][B5(18)]D[TfeGA]FAFN[PyrS2″][Phe(2-Cl)][Bta]Q-NH2
modifications: staple 1-4, 4-11
DLD1 4% Abs IC50 [1]: 4.7 µM
NanoBRET Abs IC50 [2]: 14 µM

B4: I-1983 (peptide)
peptide: Ac-[αAllylPro]D[tBuAla][S3]DDAAFL[Aib][3Thi][Bta]Q-NH2
modifications: staple 1-4; not fully specified; printed as Ac-PL3-Asp-Npg-S3-Asp-Asp-Ala-Ala-Phe-Leu-Aib-3Thi-BztA-Gln-NH2; also: staple -CH=CH- reduced to -CH2-CH2-
NanoBRET Abs IC50 [4]: > 20 µM

B6: I-565 (peptide)
peptide: Ac-[αAllylPro]DL[B5(21)]DDAAFN[S8]F[Bta]H-NH2
modifications: staple 1-4, 4-11; not fully specified
notes: Stapled peptide composition; also called Ac-PL3-Asp-Leu-B5-Asp-Asp-Ala-Ala-Phe-Asn-S8-Phe-BztA-His-NH2
IC50 [6]: 26 µM

B7: I-576 (peptide)
peptide: XDLXDEAAFNXFXQ
modifications: not fully specified; N-terminal Ac; C-terminal NH2; non-natural PL3 (1), B5 (4), S8 (11), BztA (13); stapled PL3-B5 and B5-S8 by olefin metathesis
notes: Stapled peptide composition; also called Ac-PL3-Asp-Leu-B5-Asp-Glu-Ala-Ala-Phe-Asn-S8-Phe-BztA-Gln-NH2
IC50 [6]: 11.1 µM

B9: I-988 (peptide)
peptide: Ac-[αAllylPro]D[tBuAla][B5(3)]D[TfeGA]AAFF[PyrS2″]F[Bta]Q-NH2
modifications: staple 1-4, 4-11
NanoBRET Abs IC50 [7]: 13.9 µM

B10: I-1081 (peptide)
peptide: Ac-[αAllylPro]D[tBuAla][B5(3)]DDAAFN[PyrS2″][Phe(2-Cl)][Bta]-Alaol
modifications: staple 1-4, 4-11
DLD1 reporter assay Abs IC50 [8]: 10 µM
NanoBRET Abs IC50 [9]: 16.7 µM

B11: I-53: Ac-PL3-Asp-Ala-B5-Asp-Asp-Ala-Ala-Phe-Val-SeN-Phe-Trp-Gln-NH2 (stapled peptide) (peptide)
peptide: Ac-[αAllylPro]DA[B5(21)]DDAAFV[SeN]FWQ-NH2
modifications: staple 1-4, 4-11
notes: Same description as I-54
IC50 [10]: 5 µM

B12: I-55: Ac-PL3-Asp-Ala-B5-Asp-Asp-Ala-Ala-Phe-Val-SdN-Phe-Trp-Gln-NH2 (stapled peptide) (peptide)
peptide: Ac-[αAllylPro]DA[B5(17)]DDAAFV[SdN]FWQ-NH2
modifications: staple 1-4, 4-11
notes: Tested as stapled peptide composition
IC50 [10]: 5 µM

Next, values leading:

EC50 [3]: 0.012 µM
B2: I-1043 (peptide)
peptide: Ac-[αAllylPro]DF[B5(16)]DDAAFT[PyrS2″][Phe(2-Cl)][Bta]Q-NH2
modifications: staple 1-4, 4-11
notes: Stapled (stitched) peptide composition

EC50 [3]: 0.006 µM
B3: I-1049 (peptide)
peptide: Ac-[αAllylPro]DF[B5(4)]DDAAFT[PyrS2″][Phe(2-Cl)][Bta]S-NH2
modifications: staple 1-4, 4-11
notes: as for B2

EC50 [5]: 10 µM
B5: I-1286 (peptide)
peptide: Ac-[αAllylPro]NA[B5(10)]DTAAFL[PyrS2]F[Bta]Q-NH2
modifications: staple 1-4, 4-11; not fully specified; printed as Ac-PL3-Asn-Ala-B5-Asp-Thr-Ala-Ala-Phe-Leu-PyrS2-Phe-BztA-Gln-NH2

IC50 [6]: 10.4 µM
B8: I-577 (peptide)
peptide: Ac-[αAllylPro]DL[B5(21)]DEAAFN[S8]F[Bta]Q-NH2
modifications: staple 1-4, 4-11; not fully specified
notes: as for B7
